Experimental data from article PMC4279232.

Target: recombinant GST-FAM21 356–600
Test: SPR

Kd: 300 to 600 pM
Substance: MBP-CCDC93 (448–631) (from UniProt Q567U6 448-631) (domain or fragment)
